Experiment [1] concerns the target T1, unglycosylated, monobiotinylated extracellular domain of human CD98hc produced in E. coli (human, UniProt P08195 111-529, single biotin on the N-terminal biotin acceptor peptide (BAP)).
T1 construct: also called hCD98hcED; CD98hcED; not shown: N-terminal biotin acceptor peptide (BAP) from pASK-IBA5(+)-BAP-hCD98hcED
T1 sequence: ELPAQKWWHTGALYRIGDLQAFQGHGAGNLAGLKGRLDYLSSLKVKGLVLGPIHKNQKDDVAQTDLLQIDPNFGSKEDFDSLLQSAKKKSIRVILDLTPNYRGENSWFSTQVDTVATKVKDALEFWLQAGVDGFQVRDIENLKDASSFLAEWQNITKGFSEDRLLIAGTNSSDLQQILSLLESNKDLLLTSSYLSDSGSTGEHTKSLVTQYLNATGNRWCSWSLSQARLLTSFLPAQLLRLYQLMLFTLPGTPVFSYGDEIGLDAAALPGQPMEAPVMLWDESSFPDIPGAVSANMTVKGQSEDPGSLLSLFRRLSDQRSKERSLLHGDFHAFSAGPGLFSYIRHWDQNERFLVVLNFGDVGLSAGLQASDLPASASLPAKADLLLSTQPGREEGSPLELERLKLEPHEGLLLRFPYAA
In words: SPR (BIAcore 2000), biotinylated hCD98hcED captured on CAP chip, single cycle kinetics. Here is the method: (§1) Real time surface plasmon resonance (SPR) spectroscopy was performed on a BIAcore 2000 system (BIAcore, Uppsala, Sweden) at 25° C. using HBS-T (20 mM Hepes/NaOH pH 7.5, 150 mM NaCl, 0.005% v/v Tween20) as running buffer. The purified biotinylated m/hCD98hcED (3 μg/ml protein solution in HBS-T produced in HEK cells or E. coli) was immobilized (ARU-225) via streptavidin on a CAP sensorchip of the Biotin CAPture kit (GE Healthcare). SPR single cycle kinetic experiments were performed using five consecutive injections of a 1:2 dilution series of the purified lipocalin variant at a flow rate of 25 μl/min, with 288 s contact time and 3500 s dissociation time after the fifth injection. For multi cycle kinetic experiments, eight samples from a consecutive 1:2 dilution series of the purified lipocalin variant were measured. Rate constants of association and dissociation were calculated from reference-corrected sensorgrams by fitting to a global 1:1 Langmuir binding model using BIAevaluation software (BIAcore). The equilibrium dissociation constants (KD value) were calculated as the quotient koff/kₒₙ. To test competitive binding of the lipocalin variants P3D11, P3A12 and P1E4 to glycosylated hCD98hcED, 100 nM of P3D11 was first injected and followed by a subsequent injection of either 100 nM P3A12 or 100 nM P1E4. HBS-T injections served as negative control.
A general note: In SPR one partner is held on a chip, and binding of the other changes the refractive index at the surface.

Experiment [2] addresses T2, fully glycosylated, monobiotinylated extracellular domain of human CD98hc produced in HEK 293E cells (human, UniProt P08195 111-529, N-linked glycosylation at Asn264, 280, 323 and 405 (UniProt P08195-2); single biotin on the N-terminal BAP).
T2 construct: also called hCD98hcEDg; CD98hcEDg; not shown: N-terminal His6 tag and biotin acceptor peptide (BAP) from pDSG-BM-His6-BAP-hCD98hcEDg
T2 sequence: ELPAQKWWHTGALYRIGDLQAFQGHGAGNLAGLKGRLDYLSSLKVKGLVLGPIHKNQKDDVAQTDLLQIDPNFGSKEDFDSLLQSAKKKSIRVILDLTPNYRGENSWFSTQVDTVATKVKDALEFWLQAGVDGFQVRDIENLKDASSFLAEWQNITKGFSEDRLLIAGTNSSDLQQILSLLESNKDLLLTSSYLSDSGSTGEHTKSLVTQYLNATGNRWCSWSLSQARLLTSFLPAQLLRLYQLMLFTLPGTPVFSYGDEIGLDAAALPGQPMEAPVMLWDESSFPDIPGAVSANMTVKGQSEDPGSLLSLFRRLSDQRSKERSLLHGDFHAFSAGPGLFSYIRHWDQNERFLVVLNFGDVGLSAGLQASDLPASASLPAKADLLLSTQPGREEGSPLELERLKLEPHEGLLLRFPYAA
Nature of the experiment: SPR, biotinylated hCD98hcEDg captured on CAP chip. As to the method:
as §1

The target of experiment [3] is T1, unglycosylated, monobiotinylated …. In words: SPR, complex dissociation half-life. As to the method:
as §1

Experiment [4] concerns the target T2, fully glycosylated, monobiotinylated …. In words: SPR, complex dissociation half-life. As to the method:
as §1

Experiment [5] shares this target.
Assay: not given

For experiment [6], the target named is T1, unglycosylated, monobiotinylated …. Nature of the experiment: single clone flow cytometry of E. coli displaying the lipocalin, 1 nM biotinylated hCD98hcED, mean PE fluorescence. Here is the method:
(§2) The bacterial lawn was scraped from the plate(s), resuspended in 50 ml LB/Amp medium, followed by inoculation to an initial OD₅₅₀ of 0.15 at 37° C. Gene expression was induced at OD₅₅₀=0.5 with 10 ng/ml anhydrotetracycline (aTc) for 2.5 h. Approximately 2×10⁸ cells were sedimented and resuspended in PBS with biotinylated hCD98hcED at different concentrations (cycles 1 and 2: 100 nM; cycles 3 and 4: 10 nM; cycles 5 and 6: 1 nM) for 1 h at 4° C. After one washing step with PBS, the bacteria were incubated with 25 μg/ml streptavidin/phycoerythrin (PE) conjugate (Biolegend, San Diego, Calif.) and 3 μM dye-labeled Fab A3C5-DY634 [61] in PBS for 30 min followed by a last washing step in PBS. Bacteria were sorted on a FACSAria Ilu instrument (BD Bioscience, Heidelberg, Germany) using a 488 nm LASER diode with a 585/42 band pass filter or a 633 nm HeNe LASER in combination with a 660/20 band pass filter for excitation/detection of PE and DY634 fluorescence, respectively. Sorted bacteria were plated on LB/Amp agar, incubated at 37° C. for 12 h and then subjected to a new sorting cycle. After BSD cycle 6, single clone analysis was performed by cytofluorimetric analysis of individual colonies. Data were processed using FlowJo v10 software (FlowJo, Ashland, Oreg.). […]
On the technique in general: Flow cytometry measures light scatter and fluorescence of single cells or particles in a stream.

The target is the same in experiment [7]. In words: flow cytometry of E. coli displaying the lipocalin; hCD98hcED detected by PE fluorescence, display level by Dy634 fluorescence. Here is the method:
as §2

Bounds are passed on as bounds.

B1: lipocalin variant P3A12 (designed binder)
chain: QDSTSDLIPAPPLSKVPLQQNFQDNQFHGKWYVVGRAGNLGLREDKDPAKMFATIYELKEDKSYNVTYVWFDLKKCKYSIHTFVPGSQPGEFTLGKIKSGPGHTSWLVRVVSTNYNQHAMVFFKWVGQNRENFAITLYGRTKELTSELKENFIRFSKSLGLPENHIVFPVPIDQCIDG
notes: produced soluble in E. coli JM83, monomeric; also called Anticalin P3A12; not shown: C-terminal His6-tag (plasmid pNGAL118)
Regarding B1, in experiment [1], binding was characterised by a dissociation constant (Kd) of 2.8 nM; the koff (usually a measure of how fast the partners let go of each other) was determined as 0.00017 s⁻¹; the kon (as a rule, the rate constant with which the complex forms) was found to be 62000 M⁻¹ s⁻¹. Besides, in experiment [2], the dissociation constant (Kd) – broadly, the concentration at which binding is half-saturated – was found to be 1.9 nM; the off-rate constant (koff) came out at 0.0004 s⁻¹; the kon was 220000 M⁻¹ s⁻¹. The “T½” value in experiment [3] was found to be 1.13 h. In experiment [4], the “T1/2” value was found to be 0.483 h. The Kd in experiment [5] is ≤ 200 nM.

B2: P3D11 variant D11.1 displayed on the E. coli cell surface (designed binder)
chain: QDSTSDLIPAPPLSKVPLQQNFQDNQFHGKWYVVGRAGNTGLREDKDPGKMFATIYELKEDKSYNVTYVWSGQKKCMYSIVTFVPGSQPGEFTLGNIKSAPGQTSWLVRVVSTNYNQHAMVFFKSVTQNREGFAITLYGRTKELTSELKEIFIRFSKSLGLPENHIVFPVPIDQCIDG
notes: One of the variants from error-prone PCR and bacterial surface display; not shown: The display carrier: the A3C5 tag and the engineered beta-domain of the autotransporter EspP (pNGAL146)
B2: the binding result in experiment [6] is on record as “binds”.

B3: SEQ ID NO 9 (designed binder)
chain: QDSTSDLIPAPPLSKVPLQQNFQDNQFHGKWYVVGRAGNTGLREDKDPGKMFATIYELKEDKSYNVTYVWFGQKKCMYSIVTFVPGSQPGEFTLGNIKSAPGRTSWLVRVVSTNYNQHAMVFFKSVTQNREEFAITLYGRTKELTSELKENFIRFSKSLGLPENHIVFPVPIDQCIDG
B3: the dissociation constant (Kd) in experiment [5] is ≤ 200 nM.

B4: SEQ ID NO 10 (designed binder)
chain: QDSTSDLIPAPPLSKVPLQQNFQDNQFHGKWYVVGRAGNTGLREDKDPGKMFATIYELKEDKSYNVTYVWSGQKKCMYSIVSFVPGSQPGEYNLGNIKSAPGRTSWLVRVVSTNYNQHAMVFFKSVTQNREGFAITLYGRTKELTSELKENFIRFSKSLGLPENHIVFPVPIDQCIDG
For B4, the Kd in experiment [5] is ≤ 200 nM.

B5: SEQ ID NO 11 (designed binder)
chain: QDSTSDLIPAPPLSKVPLQQNFQDNQFHGKWYVVGRAGNTGLREDKDPGKMFATIYELKEDKSYNVTYVWSGQTKCMYSIVTFVPGSQPGEFTLGNIKSAPGRTSWLVRVVSTNYNQHAMVFFKSVTQNREGFAITLYGRTKELTSELKENFIRFSKSLGLPENHIVFPVPIDQCIDG
Regarding B5, the Kd in experiment [5] is ≤ 200 nM.

B6: SEQ ID NO 5 (designed binder)
chain: QDSTSDLIPAPPLSKVPLQQNFQDNQFHGKWYVVGRAGNTGLREDKDPGKMFATIYELKEDKSYNVTYVWFGQKKCMYSIVTFVPGSQPGEFTLGNIKSAPGRTSWLVRVVSTNYNQYAMVFFKSVTQNREGFAITLYGRTKELTSELKENFIRFSKSLGLPENHIVFPVPIDQCIDG
For the molecule B6, in experiment [5], the equilibrium dissociation constant (Kd) was ≤ 200 nM.

B7: lipocalin variant P3D11 (designed binder)
chain: QDSTSDLIPAPPLSKVPLQQNFQDNQFHGKWYVVGRAGNTGLREDKDPGKMFATIYELKEDKSYNVTYVWFGQKKCMYSIGTFVPGSQPGEFTLGNIKSAPGRTSWLVRVVSTNYNQHAMVFFKSVTQNREGFAITLYGRTKELTSELKENFIRFSKSLGLPENHIVFPVPIDQCIDG
notes: produced soluble in E. coli JM83, monomeric; also called Anticalin P3D11; not shown: C-terminal His6-tag (plasmid pNGAL118)
In experiment [1], B7 gave an equilibrium dissociation constant (Kd) of 0.15 nM, a koff of 3.2e-05 s⁻¹ and an on-rate constant (kon) of 220000 M⁻¹ s⁻¹. In experiment [2], this molecule displayed a Kd of 0.17 nM, a dissociation rate constant (koff) of 5e-05 s⁻¹ and a kon of 300000 M⁻¹ s⁻¹. Besides, the “T½” value in experiment [3] came out at 5.99 h. Further, the “T1/2” value in experiment [4] came out at 3.83 h. Also, in experiment [5], the Kd was ≤ 200 nM.

B8: SEQ ID NO 8 (designed binder)
chain: QDSTSDLIPAPPLSKVPLQQNFQDNQFHGKWYVVGRAGNTGLREDKDPGKMFATIYELKEDKSYNVTYVWFGQKKCMYSIVTFVPGSQPGEFTLGNIKSAPGRTSWLVRVVSTNYNQYAMVFFKSETQNREGFAITLYGRTKELTSELKEYFIRFSKSLGLPENHIVFPVPIDQCIDG
B8: the dissociation constant (Kd) in experiment [5] is ≤ 200 nM.

B9: SEQ ID NO 6 (designed binder)
chain: QDSTSDLIPAPPLSKVPLQQNFQDNQFHGKWYVVGRAGNTGLREDKDPGKMFATIYELKEDKSFNVTYVWFGQKKCMYSIVTFVPGSQPGEFTLGNIKSAPGRTSWLVRVVSTNYNQHAMVFFKSVTQNREGFAITLYGRTKELTSELKENFIRFSKSLGLPENHIVFPVPIDQCIDG
B9: the Kd in experiment [5] was ≤ 200 nM.

B10: SEQ ID NO 7 (designed binder)
chain: QDSTSDLIPAPPLSKVPLQQNFQDNQFHGKWYVVGRAGNTGLREDKDPGKMFATIYELKEDKSYNVTYVWFGQKKCMNSIVTFVPGSQPGEFTLGNIKSAPGRTSWLVRVVSTNYNQYAMVFFKSVTQNREGFAITLYGRTKELTSELKENFIRFSKSLGLPENHIVFPVPIDQCIDG
In the case of B10, the equilibrium dissociation constant (Kd) in experiment [5] was ≤ 200 nM.

B11: wtLcn2 displayed on the E. coli cell surface (other)
chain: QDSTSDLIPAPPLSKVPLQQNFQDNQFQGKWYVVGLAGNAILREDKDPQKMYATIYELKEDKSYNVTSVLFRKKKCDYWIRTFVPGCQPGEFTLGNIKSYPGLTSYLVRVVSTNYNQHAMVFFKKVSQNREYFKITLYGRTKELTSELKENFIRFSKSLGLPENHIVFPVPIDQCIDG
notes: Control in the single clone FACS analysis; also called wild type Lcn2; not shown: The display carrier: the A3C5 tag and the engineered beta-domain of the autotransporter EspP (pNGAL146)
In the case of B11, the binding result in experiment [7] is listed as “no binding (tested: 100 nM hCD98hcED)”.
